This note sets out measurements from patent US20200109188A1 (AstraZeneca / MedImmune, published 2020).

What all share (assay): cell-based or functional assay
Assay [1] concerns the target HA of A/Fort Monmouth/1/47 (H1N1) virus (influenza A virus).
In assay [2] the target is HA of A/Kawasaki/9/86 (H1N1) virus (influenza A virus).
Assay [3] concerns the target HA of ca A/Texas/36/91 (H1N1) virus (influenza A virus).
Assay [4] concerns the target HA of ca A/Beijing/262/95 (H1N1) virus (influenza A virus).
Assay [5] addresses HA of ca A/Vietnam/1203/04 (H5N1) virus (influenza A virus).
In assay [6] the target is HA of ca A/teal/Hong Kong/W312/97 (H6N1) virus (influenza A virus).
In assay [7] the target is HA of A/Hong Kong/8/68 (H3N2) virus (influenza A virus).
Assay [8] deals with HA of A/Victoria/3/75 (H3N2) virus (influenza A virus, UniProt P03435 17-567).
Sequence of HA of A/Victoria/3/75 (H3N2) virus (P03435 17-567 limits assumed): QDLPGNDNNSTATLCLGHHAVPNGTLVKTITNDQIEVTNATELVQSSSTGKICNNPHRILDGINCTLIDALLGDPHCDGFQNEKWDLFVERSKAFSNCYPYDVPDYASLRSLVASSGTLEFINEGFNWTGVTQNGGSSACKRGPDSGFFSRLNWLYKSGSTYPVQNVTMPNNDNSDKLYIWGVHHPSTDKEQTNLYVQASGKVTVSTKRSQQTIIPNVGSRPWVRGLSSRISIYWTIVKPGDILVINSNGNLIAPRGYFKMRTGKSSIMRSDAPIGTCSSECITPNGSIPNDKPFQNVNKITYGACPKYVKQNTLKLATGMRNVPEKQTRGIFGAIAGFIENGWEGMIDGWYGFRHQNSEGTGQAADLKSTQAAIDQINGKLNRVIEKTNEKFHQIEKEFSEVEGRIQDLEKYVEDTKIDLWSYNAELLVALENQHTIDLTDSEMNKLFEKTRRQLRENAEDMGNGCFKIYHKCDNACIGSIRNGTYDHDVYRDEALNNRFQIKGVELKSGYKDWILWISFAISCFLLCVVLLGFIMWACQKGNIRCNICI
Assay [9] deals with HA of ca A/Sydney/5/97 (H3N2) virus (influenza A virus).
In assay [10] the target is HA of A/Wyoming/03/03 (H3N2) virus (influenza A virus).
Assay [11] has as its target HA of A/Wisconsin/67/05 (H3N2) virus (influenza A virus).
The target of assay [12] is HA of ca A/Perth/16/09 (H3N2) virus (influenza A virus).
For assay [13], the target named is HA of ca A/Brit. Columbia/CN-6/04 (H7N3-LP) virus (influenza A virus).

B1: Antibody 3 (antibody, V domains shown)
VH: QVQLQESGPGLVKPSQTLSLTCAISGDSVSSNNAVWNWIRQSPSRGLEWLGRTYYRSKWYNDYAESVKSRITVNPDTSKNQFSLHLKSVTPEDTAVFYCVRSGHITVFGVNVDAFDMWGQGTMVTVSS
VL: DIQMTQSPSSLSASVGDRVTITCRTSQSLSSYLHWYQQKPGKAPKLLIYAASSLQSGVPSRFSGSGSGTDFTLTISSLQPEDFATYYCQQSRTFGQGTKVEIK
For the molecule B1, the “Neutralization IC50, H1-FM47” value in assay [1] is 0.92 µg/mL. Also, the “Neutralization IC50, H1-Kaw86” value in assay [2] came to 0.58 µg/mL. Besides, the “Neutralization IC50, H1-TX91” value in [3] turned out to be 0.6 µg/mL. Also, the “Neutralization IC50, H1-BJ95” value in [4] worked out at 3.41 µg/mL. Besides, the “Neutralization IC50, H5-VM04” value in assay [5] came to 2.11 µg/mL. Also, the “Neutralization IC50, H6-HK97” value in assay [6] stood at 1.77 µg/mL. For the same molecule, the “Neutralization IC50, H3-HK68” value in assay [7] was determined as 0.68 µg/mL. In [8], the “Neutralization IC50, H3-Vic75” value was found to be 0.75 µg/mL. For the same molecule, the “Neutralization IC50, H3-Syd97” value in assay [9] is 3.75 µg/mL. In addition, the “Neutralization IC50, H3-Wy03” value in [10] is 0.63 µg/mL. The “Neutralization IC50, H3-Wl05” value in [11] was 2.44 µg/mL. The “Neutralization IC50, H3-Perth09” value in assay [12] was determined as 1.49 µg/mL. Also, in assay [13], the “Neutralization IC50, H7-BC04” value was 4.72 µg/mL.
